Test results as given in paper PMC3858362, “A Soluble Fucose-Specific Lectin from Aspergillus fumigatus Conidia - Structure, Specificity and Possible Role in Fungal Pathogenicity” (PLoS ONE, 2013).

Target: the molecule itself
Assay: AUC; sedimentation velocity; AFL 0.04-0.30 mg/ml in 20 mM Tris/HCl, 300 mM NaCl, pH 7.4; 20 °C, 42,000 rpm; continuous c(s) analysis in Sedfit

B1: Aspergillus fumigatus lectin (AFL), recombinant (natural protein)
chain: MSTPGAQQVLFRTGIAAVNSTNHLRVYFQDVYGSIRESLYEGSWANGTEKNVIGNAKLGSPVAATSKELKHIRVYTLTEGNTLQEFAYDSGTGWYNGGLGGAKFQVAPYSCIAAVFLAGTDALQLRIYAQKPDNTIQEYMWNGDGWKEGTNLGGALPGTGIGATSFRYTDYNGPSIRIWFQTDDLKLVQRAYDPHKGWYPDLVTIFDRAPPRTAIAATSFGAGNSSIYMRIYFVNSDNTIWQVCWDHGKGYHDKGTITPVIQGSEVAIISWGSFANNGPDLRLYFQNGTYISAVSEWVWNRAHGSQLGRSALPPA
notes: Fucose-specific lectin AFL of Aspergillus fumigatus, gene AFUA_5G14740 (Af293 genome); cloned from a commercial cDNA library of A. fumigatus ATCC 13073 with primers from the start ATG to an in-frame stop codon; 314 aa long without the initial Met; Cloned NdeI/HindIII into pET29a with its own stop codon; no tag is mentioned; also called rAFL; AfuFleA
How did the “stoichiometry N” value turn out when B1 was run?
Its value is 2.
